Numbering of substitutions follows the chain as printed.
B1: ADI-18929 (antibody, V domains shown)
VH: QVQLVQSGGGLVKPGGSLRLSCAASGFTFNDYYMNWIRQAPGKGLEWVSYISSSGETKYYADSVKGRFTISRDNAKNSLYLEMNSLRVEDTAVYYCARDAVIVVGPVAVHYQYYADVWGKGTTVTVSS
VL: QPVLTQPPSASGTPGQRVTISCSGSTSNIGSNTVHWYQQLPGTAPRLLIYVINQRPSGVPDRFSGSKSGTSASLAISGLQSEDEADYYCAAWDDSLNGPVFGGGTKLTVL
B2: ADI-18931 (antibody, V domains shown)
VH: EVQLVESGGGLQKPGRSLRLSCSASGFTFGDYAMSWFRQAPGKGLEWVGFIRSKAYVGTAEYAASVKGRFTISRDDSKSIAYLHMNSLKTEDTAVYYCTRDDILTGFYDRSYYYGIHVWGQGTTVTVSS
VL: EIVMTQSPVTLSVSPGERATLSCRASQSVNSNLAWYQKKPGQAPRLLIYSASTRATGVPARFSGSGSGTEFTLTVSSLQSEDFAVYYCQQYDNWPPYTFGQGTKVEIK
notes: full-length IgG from yeast; also called Antibody Number 285; Ab # 285
B3: ADI-18940 (antibody, V domains shown)
VH: QVQLVQSGAGVKKPGASVRVSCTASGYTFTDYFINWVRQAPGGGLEWMGWVNPLSGATRYAQNFAGRVTMTTDTSITTGYLDLRNLRLDDTAVYFCASQSSPYTPGAMDVWGQGTTVTVSS
VL: DIVMTQSPSSLSASVGDRVSITCRTSQTISGYISWYQKKPGKAPKLLIYAASNMYSGVPSRFSGSESGTDFTLTITSLQPEDFATYFCQLNSGALFTFGPGTKVDIK
notes: full-length IgG from yeast
B4: ADI-18943 (antibody, V domains shown)
VH: QVQLQESGPGLVKPSETLSLTCSVSGASVTSREYYWGWIRQAPGKGLQWIASIHHSPFQSDGNPSLTSRVSSSVVTSKNQLALRLSSVTAADTAVYYCAGAFWEVWTGLYSPPFDFWGQGILVTVSS
VL: EIVMTQSPGTLSLSPGERATLSCWASQTVSSGYLAWYQQKPGQAPRLLIYGASTRATDIPDRFSGSGSGTGFTLTISRLEPEDLAVYYCQQYSSSPLTFGGGTKVEIK
notes: full-length IgG from yeast
B5: ADI-18944 (antibody, V domains shown)
VH: QVQLVQSGAEVKKPGASVKVSCKTSGYTFSNYGISWLRQAPGQGLEWMAWISPYNGNTKSAQRFQGRVIMTTDTSTRTAHMEVKSLRTDDTATYYCARDPAVDAIPMLDYWGQGTTVTVSS
VL: DIQVTQSPLSLPVTLGQPASISCRSSQSLVYTDGNTYLSWFQQRPGQSPRRLIYRVSHRDSGVPDRFTGSGSGTDFTLIIRRVEAEDVGVYYCMQGTHWPLTFGGGTKVEIK
notes: full-length IgG from yeast
B6: ADI-18949 (antibody, V domains shown)
VH: B5 VH with T116M
VL: B5 VL with D1E, Q3V, V4L
notes: full-length IgG from yeast
B7: ADI-18972 (antibody, V domains shown)
VH: B5 VH with T116L
VL: B5 VL with V4M, V109L
notes: full-length IgG from yeast; also called Antibody Number 320; Ab # 320
B8: ADI-18956 (antibody, V domains shown)
VH: QVQLVQSGAELKKPGSSVKVSCKASADTFKSYAINWVRQAPGQGLEWMGEFIPIFGVSPSAQKFQGRVTITADRSTSTAYMELSSLKSDDSAIYYCATRLYTLGSPFDNWGQGTTVTVSS
VL: QPVLTQPRSVSGSPGQSVTISCTGTSSDVGDYDYVSWYQHLPGEVPKLIVYNVIKRPSGVPDRFSGSKSGNTASLTISGLQAEDEADYYCCSYAGRYIYVFGSGTKLTVL
notes: full-length IgG from yeast
B9: ADI-18957 (antibody, V domains shown)
VH: EVQLLESGGGLVKPGESLRLSCAASGFTLSGYYMNWVRQAPGRGLEWVSSISGGSNYINYADSVKGRFTISRDNAKNSLYLQMNSLRVEDTAVYYCARVHVDLVTTIFGVDFDFWGQGTLVTVSS
VL: QSVLTQPPSVSGAPGQRVTISCTGSSSNIGAGYDVHWYQQLPGTAPKLLIYGNTNRPAGVPDRFSGSKSGSSASLAITGLQAEDEADYYCQSYDSSLSGAIFGGGTKLTVL
notes: full-length IgG from yeast
B10: ADI-18959 (antibody, V domains shown)
VH: QVQLVQSGAEVKKPGASVRVSCKVYGHTLSELSMHWVRQGPEGGLEWMGAFDHEDGEGIYPQKFQGRITMTADISTDTAHMELRSLRSEDTAVYYCATPTPVGATDFWGQGTLVTVSS
VL: DIRVTQSPSSLSASVGDRVTITCRASQSISSYLNWYQQKPGKAPKLLIYAASTLQRGGPSRFSGSGSGTDFTLSISSLQPEDFATYYCQQTYIIPYTFGQGTKLEIK
notes: full-length IgG from yeast; also called Antibody Number 310; Ab # 310
B11: ADI-18962 (antibody, V domains shown)
VH: QVQLVQSGGGLVKPEGSLRLSCAASGFTFSSYSMNWVRQAPGKGLEWVSSISSSSSYIYYADSVKGRFTISRDNAKNSLYLQMNSLRAEDTAVYYCARVSTELGYYYMDVWGKGTTVTVSS
VL: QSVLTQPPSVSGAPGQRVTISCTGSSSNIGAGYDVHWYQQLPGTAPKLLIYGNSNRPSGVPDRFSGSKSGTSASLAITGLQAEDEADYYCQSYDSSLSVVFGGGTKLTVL
notes: full-length IgG from yeast
B12: ADI-18965 (antibody, V domains shown)
VH: QVQLVQSGAEVKKPGASVKISCKASGYPFSSYPMHWVRQAPGQRLEWMGWINVDNENTKYSWKFRGRVTITRDTSASTVYMELSSLISEDTAVYYCGRDWDGAIRVLDYWGQGTLVTVSS
VL: DIVMTQTPDSLAVSLGERATITCKSSQSVLFSSDNKNYLAWYQQKPGQPPKLLIYWASIRESGVPDRFGGSGSGTHFTLTITSVQAADVAVYYCQQYYGNFPTFGQGTRLEIK
B13: ADI-18967 (antibody, V domains shown)
VH: QVQLVQSGAEVKKPGASVKVACKVSGSSLTELSIQWVRLPPGKRLEWLGAFDAEDGAPIYSPKFQGRVTMTEDRSTETAYMEVTSLRSEDTALYYCATPLPAGALDKWGQGTLVTVSS
VL: DIQMTQSPSSLSASVGDRVTISCRASQTISRYLNWYQVKPGTAPKLLIYAASSLQTGVPSRFSASGSGADFTLTISSLQPEDFATYHCQQTYIIPYTFGQGTKVDIK
notes: full-length IgG from yeast; also called Antibody Number 315; Ab # 315
B14: ADI-18884 (antibody, V domains shown)
VH: EVQLVESGAEMKKPGASVKVSCKASGYTFTNYAIHWVRQAPGQSLEWMGWINAGNGNTQYSQKFQGRVTFTRDTSASTVYMDLSSLRSEDTAVYYCARGQIVVIPRANFWFDPWGQGTLVTVSS
VL: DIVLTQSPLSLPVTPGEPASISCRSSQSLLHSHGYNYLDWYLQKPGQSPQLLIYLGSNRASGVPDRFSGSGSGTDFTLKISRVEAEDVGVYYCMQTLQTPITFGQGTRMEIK
notes: full-length IgG from yeast; also called Antibody Number 240; Ab # 240
B15: ADI-18894 (antibody, V domains shown)
VH: QVQLVQSGGGVVQPGRSLKHSCAASGFTFNNYAIHWVRQAPGKGLEWVAAISYDGSNEYYSNSVKGRFTISRDNSKYTLYLQMNSLRPEDTAVYYCARGASYYYVSSDLGYWGQGTLVTVSS
VL: QPVLTQPPSVSGAPGQRVTISCTGSSSNIGSGYDVHWYQQLPGTAPKVVIYGNINRPSGVPERFSGSKSGTSASLAITGLQAEDEADYYCQSYDSLSASWVFGGGTKLTVL
notes: full-length IgG from yeast; also called Antibody Number 249; Ab # 249
B16: ADI-18901 (antibody, V domains shown)
VH: EVQLVESGAEVKRPGASVKISCKASEYAFTAHYLHWVRQAPDQGLEWMGWISPKSGGTNYAQKFHGRVSMTSDTSISTVYMELSSLTSDDTAVYYCARSSLVGASPNFDFWGQGTLVTVSS
VL: QSVLTQPPSVSAAPGQRVTISCSGSSSNIGNNYVSWYQQLPGTTPKVLIYDNNQRPSGIPDRFSGSKSGTSATLAISGLQTGDEAVYYCGTWDASLSAAMVFGGGTKLTVL
B17: ADI-18905 (antibody, V domains shown)
VH: EVQLVESGPTLVKPSETLSLTCVVSGGSVYRSSNYWAWIRQPPGKGLEWIGSVYHSGNPYSNPSLQSRVSVSIDTSKNQFSLKLYSVTAADSAIYYCACKRADADDVDYVAGLTGFPWYFDVWGRGTLVTVSS
VL: EIVLTQSPSTLSASVGDRVTITCRASQSISSWLAWYQQKPGKTPKLLIYKASTLESGVPSRFSGSGSGTEFTLTISSLQPDDFATYYCQQYHVYFPLTFGGGTKVEIK
B18: ADI-18907 (antibody, V domains shown)
VH: QVQLVQSGPEVKKPGSSVKVSCKASGGTFSSYAITWVRQAPGQGLEWMGGIIPSFDRVDYSRNFKGRVTFTADKSANTAYMELTNVRSDDTAVYYCARGCCGAVAGFQHWGQGTGVTVSS
VL: DIVLTQTPATLSLSPGETATLSCRASQSVTTYLAWYQQKPGQAPRLLIYDASNRATGVPTRFSGSGSGTDFTLTISSLEPEDYAIYYCQQRTTGVTFGGGTKVEIK
notes: full-length IgG from yeast; also called Antibody Number 262; Ab # 262
B19: ADI-18910 (antibody, V domains shown)
VH: QVQLVQSGAEVKKPGSSVKVSCKASGGTFSSYAISWVRQAPGQGLEWMGGIIPMFDIVDYAQKFQGRVTITADESTNTAYMELTSLRSEDTAVYYCARTAALGPPGTIVGYMDVWGKGTTVTVSS
VL: DIVMTQSPLSLPVTPGEPASISCRSSQSLLQSNGYNYLDWYLQKPGQAPQLLIYLGSNRASGVPDKFSGSGSGTDFTLKISRVEAEDVGVYYCMQTLQTPWTFGQGTKVEIK
notes: full-length IgG from yeast; also called Antibody Number 265; Ab # 265
B20: ADI-18925 (antibody, V domains shown)
VH: QVQLVESGGGVVQPGRSLRLSCAASGFPFSLYAMHWVRQAPGKGLEWVAFISYDGSNKYYADSVKGRFTISRDSSKNTLYLQMDSLTPEDTAVYYCAKPIVGPTTGYFDYWGPGTLVTVSS
VL: EIVLTQSPATLSLSPGERATLSCRASQSVSSYLAWYQQKPGQAPRLLIYDASNRATGIPARFSGSGSGTDFTLTISSLEPEDFAVYYCQQRSNWYTFGQGTKVEIK

Molecular target: RSV F protein of subtype B (18537) on recombinant mKate-RSV virus (Respiratory syncytial virus subtype B …, UniProt P13843 26-574)
Experiment: cell-based or functional assay

Binder | Neut IC50 (µg/ml) subtype B [µg/mL]
B1 | 0.369
B2 | > 10
B3 | 0.063
B4 | 0.043
B5 | 0.074
B6 | 0.076
B7 | 0.107
B8 | > 10
B9 | 6.08
B10 | 2.26
B11 | > 10
B12 | 6.89
B13 | 3.65
B14 | 0.239
B15 | 0.123
B16 | 5.76
B17 | 3.68
B18 | > 10
B19 | 0.767
B20 | > 10

Molecular target: RSV F protein of subtype A (strain A2) on recombinant mKate-RSV virus (Respiratory syncytial virus subtype A …, UniProt P03420 26-574)
Experiment: cell-based or functional assay

Binder | Neut IC50 (µg/ml) subtype A [µg/mL]
B1 | 0.261
B2 | > 10
B3 | 0.023
B4 | 0.027
B5 | 0.026
B6 | 0.04
B7 | 0.016
B8 | > 10
B9 | 1.34
B10 | 7.21
B11 | 4.44
B12 | 3.02
B13 | 6.74
B14 | 0.073
B15 | 0.345
B16 | 5.65
B17 | 0.685
B18 | 3.3
B19 | > 10
B20 | > 10

Molecular target: T1, RSV F subtype A, furin-cleaved ectodomain stabilized in the prefusion conformation (DS-Cav1) (Respiratory syncytial virus subtype A, UniProt P03420 26-524)
T1 construct: extracellular domain; Trimeric soluble antigen; also called Prefusion subtype A
Experiment: BLI, IgG on AHQ sensor, 100 nM antigen

Binder | Kd [nM]
B10 | 4.68
B13 | 0.809

Molecular target: T2, RSV F subtype B, furin-cleaved ectodomain stabilized in the prefusion conformation (DS-Cav1) (Respiratory syncytial virus subtype B)
T2 construct: extracellular domain; Trimeric soluble antigen; also called Prefusion subtype B
Experiment: BLI, IgG on AHQ sensor, 100 nM antigen

Binder | Kd [nM]
B2 | 0.488
B3 | 1.56
B4 | 0.725
B5 | 0.337
B6 | 0.308
B7 | 0.368
B8 | 0.224
B9 | 0.324
B11 | 22.8
B14 | 0.204
B15 | 0.327
B18 | 0.204
B19 | 10.6
